pRb kinase activity (fold less efficient) data for two substances are collected here from patent publication US6033847.

Assay [1] has as its target CDK6-cyclin D2 holoenzyme complex (Mus musculus (Mouse)) (UniProt P30280).
Assay [2] concerns the target CDK4-cyclin D2 holoenzyme complex (Mus musculus (Mouse)) (UniProt P30285).

For “GST-ANK6 (GST fused to the MAD3 subdomain containing only the five ankyrin repeats, amino acids 73-242) (from UniProt P08515)”, the pRb kinase activity (fold less efficient) in assay [1] and in assay [2] was over 30 in each case.

For “GST-MAD3 (GST fused to mouse IkB (MAD3)) (from UniProt Q9Z1E3)”, the pRb kinase activity (fold less efficient) in assay [1] and in assay [2] was over 30 throughout.
